Laboratory results reported in paper PMC4057782, “tRNA synthetase counteracts c-Myc to develop functional vasculature”.

Tests used:
SerRS [1] = target: T1, SerRS (Homo sapiens, UniProt P49591 1-514); assay: EMSA; interaction not affected; EMSA: 20 mM Tris-HCl pH 8.0, 60 mM KCl, 5 mM MgCl2, 0.1 mg/ml BSA, 10 ng/ul poly(dG-dC), 1 mM DTT, 30 min, room temperature; SPR: 10 mM HEPES pH 7.4, 150 mM NaCl, 0.005% P-20; footprint: 20 mM HEPES pH 7.9, 120 mM KCl, 8 mM MgCl2, 0.2 mM EDTA, 0.5 mM DTT, 0.2 mg/ml BSA, 10 ug/ml poly(dG-dC), 5% glycerol, room temperature; conditions: protein: recombinant; tags: C-terminal His tag (pET-20b); chain copies: 2; label: 5' 32P
c-Myc;MAX = c-Myc;MAX (Homo sapiens;Homo sapiens, UniProt P01106;P61244 16-454;1-160, |); assay: EMSA; competed off by SerRS at same concentrations; EMSA: 20 mM Tris-HCl pH 8.0, 60 mM KCl, 5 mM MgCl2, 0.1 mg/ml BSA, 10 ng/ul poly(dG-dC), 1 mM DTT, 30 min, room temperature; SPR: 10 mM HEPES pH 7.4, 150 mM NaCl, 0.005% P-20; footprint: 20 mM HEPES pH 7.9, 120 mM KCl, 8 mM MgCl2, 0.2 mM EDTA, 0.5 mM DTT, 0.2 mg/ml BSA, 10 ug/ml poly(dG-dC), 5% glycerol, room temperature; conditions: protein: recombinant;recombinant; tags: C-terminal His tag;C-terminal His tag; label: 5' 32P
SerRS [2] = target: T1, SerRS; assay: EMSA; 5 mM Mg2+; EMSA: 20 mM Tris-HCl pH 8.0, 60 mM KCl, 5 mM MgCl2, 0.1 mg/ml BSA, 10 ng/ul poly(dG-dC), 1 mM DTT, 30 min, room temperature; SPR: 10 mM HEPES pH 7.4, 150 mM NaCl, 0.005% P-20; footprint: 20 mM HEPES pH 7.9, 120 mM KCl, 8 mM MgCl2, 0.2 mM EDTA, 0.5 mM DTT, 0.2 mg/ml BSA, 10 ug/ml poly(dG-dC), 5% glycerol, room temperature; conditions: protein: recombinant; tags: C-terminal His tag (pET-20b); chain copies: 2; label: 5' 32P
MAX = MAX (Homo sapiens, UniProt P61244 1-160); assay: EMSA; MAX/MAX homodimer, not displaced by SerRS; EMSA: 20 mM Tris-HCl pH 8.0, 60 mM KCl, 5 mM MgCl2, 0.1 mg/ml BSA, 10 ng/ul poly(dG-dC), 1 mM DTT, 30 min, room temperature; SPR: 10 mM HEPES pH 7.4, 150 mM NaCl, 0.005% P-20; footprint: 20 mM HEPES pH 7.9, 120 mM KCl, 8 mM MgCl2, 0.2 mM EDTA, 0.5 mM DTT, 0.2 mg/ml BSA, 10 ug/ml poly(dG-dC), 5% glycerol, room temperature; conditions: protein: recombinant; tags: C-terminal His tag; chain copies: 2; label: 5' 32P
SerRS [3] = target: T1, SerRS; assay: EMSA; minimal binding site; EMSA: 20 mM Tris-HCl pH 8.0, 60 mM KCl, 5 mM MgCl2, 0.1 mg/ml BSA, 10 ng/ul poly(dG-dC), 1 mM DTT, 30 min, room temperature; SPR: 10 mM HEPES pH 7.4, 150 mM NaCl, 0.005% P-20; footprint: 20 mM HEPES pH 7.9, 120 mM KCl, 8 mM MgCl2, 0.2 mM EDTA, 0.5 mM DTT, 0.2 mg/ml BSA, 10 ug/ml poly(dG-dC), 5% glycerol, room temperature; conditions: protein: recombinant; tags: C-terminal His tag (pET-20b); chain copies: 2; label: 5' 32P
SerRS [4] = target: T1, SerRS; assay: SPR; HBS-EP pH 7.4, 1:1 fit; EMSA: 20 mM Tris-HCl pH 8.0, 60 mM KCl, 5 mM MgCl2, 0.1 mg/ml BSA, 10 ng/ul poly(dG-dC), 1 mM DTT, 30 min, room temperature; SPR: 10 mM HEPES pH 7.4, 150 mM NaCl, 0.005% P-20; footprint: 20 mM HEPES pH 7.9, 120 mM KCl, 8 mM MgCl2, 0.2 mM EDTA, 0.5 mM DTT, 0.2 mg/ml BSA, 10 ug/ml poly(dG-dC), 5% glycerol, room temperature; conditions: protein: recombinant; tags: C-terminal His tag (pET-20b); chain copies: 2; label: biotin; 3' overhang 3 nt on strand 1

T1 sequence (P49591 whole entry): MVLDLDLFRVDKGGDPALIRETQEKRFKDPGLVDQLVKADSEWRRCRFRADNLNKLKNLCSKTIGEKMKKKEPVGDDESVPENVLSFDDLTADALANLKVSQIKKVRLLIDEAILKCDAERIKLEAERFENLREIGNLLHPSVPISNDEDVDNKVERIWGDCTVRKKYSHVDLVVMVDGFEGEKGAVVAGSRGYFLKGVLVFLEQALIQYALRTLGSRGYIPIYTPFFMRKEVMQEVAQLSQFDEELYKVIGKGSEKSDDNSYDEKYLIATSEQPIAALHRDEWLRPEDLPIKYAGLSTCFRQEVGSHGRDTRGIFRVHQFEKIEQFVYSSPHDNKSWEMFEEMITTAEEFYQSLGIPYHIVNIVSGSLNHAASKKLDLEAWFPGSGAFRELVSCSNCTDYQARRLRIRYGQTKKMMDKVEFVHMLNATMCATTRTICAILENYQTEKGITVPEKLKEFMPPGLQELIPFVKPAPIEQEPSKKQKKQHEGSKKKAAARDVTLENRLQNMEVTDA
Chain of MAX (P61244 whole entry): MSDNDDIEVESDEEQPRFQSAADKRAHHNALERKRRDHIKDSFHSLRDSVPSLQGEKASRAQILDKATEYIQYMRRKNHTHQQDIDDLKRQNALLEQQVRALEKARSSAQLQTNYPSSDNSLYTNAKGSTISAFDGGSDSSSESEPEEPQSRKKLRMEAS
Chain of c-Myc;MAX (P01106 16-454, chain 1 of 2): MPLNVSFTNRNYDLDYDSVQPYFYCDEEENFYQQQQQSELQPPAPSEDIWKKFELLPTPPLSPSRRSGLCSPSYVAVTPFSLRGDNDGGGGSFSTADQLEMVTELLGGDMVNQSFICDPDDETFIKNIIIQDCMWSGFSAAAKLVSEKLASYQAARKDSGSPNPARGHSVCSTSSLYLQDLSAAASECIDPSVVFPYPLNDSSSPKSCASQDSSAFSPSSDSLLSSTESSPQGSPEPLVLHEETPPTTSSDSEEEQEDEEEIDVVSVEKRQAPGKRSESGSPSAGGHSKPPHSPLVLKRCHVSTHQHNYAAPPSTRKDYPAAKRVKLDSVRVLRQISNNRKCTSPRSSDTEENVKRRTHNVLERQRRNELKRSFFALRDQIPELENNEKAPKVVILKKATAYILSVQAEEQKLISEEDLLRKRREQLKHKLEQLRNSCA
Chain of c-Myc;MAX (P61244 whole entry, chain 2 of 2): as the sequence (P61244 whole entry) above

B1: 27-bp E-box double mutant CTTACG (dsDNA)
DNA 1: GGCGGGGCGGAGCCTTACGCCCCCCCC
DNA 2: GGGGGGGGCGTAAGGCTCCGCCCCGCC
- binding result (SerRS [1]): binds

B2: VEGFA promoter 27-bp (-62 to -36) (dsDNA)
DNA 1: GGCGGGGCGGAGCCATGCGCCCCCCCC
DNA 2: GGGGGGGGCGCATGGCTCCGCCCCGCC
- binding result (c-Myc;MAX): binds
- Kd (SerRS [2]): 212 nM
- binding result (MAX): binds

B3: VEGFA minimal SerRS site (-59 to -38) (dsDNA)
DNA 1: GGGCGGAGCCATGCGCCCCCCC
DNA 2: GGGGGGGCGCATGGCTCCGCCC
- binding result (SerRS [3]): binds

B4: VEGFA promoter SPR duplex (dsDNA)
DNA 1: GGCGGGGCGGAGCCATGCGCCCCCCCCTTTATA
DNA 2: AAAGGGGGGGGCGCATGGCTCCGCCCCGCC
modifications: 3' biotin on strand 1
- Kd (SerRS [4]): 265 nM
